Values joined by “and” are separate entries in the source; they are usually repeats but may differ in a detail not shown here. Equal values may be shown once. Some results are limits rather than exact numbers.

In assay [1] the target is T1, GPNMB (CG56972), native full-length protein on the cell surface or in cell lysates (human, UniProt Q14956 23-492).
T1 sequence: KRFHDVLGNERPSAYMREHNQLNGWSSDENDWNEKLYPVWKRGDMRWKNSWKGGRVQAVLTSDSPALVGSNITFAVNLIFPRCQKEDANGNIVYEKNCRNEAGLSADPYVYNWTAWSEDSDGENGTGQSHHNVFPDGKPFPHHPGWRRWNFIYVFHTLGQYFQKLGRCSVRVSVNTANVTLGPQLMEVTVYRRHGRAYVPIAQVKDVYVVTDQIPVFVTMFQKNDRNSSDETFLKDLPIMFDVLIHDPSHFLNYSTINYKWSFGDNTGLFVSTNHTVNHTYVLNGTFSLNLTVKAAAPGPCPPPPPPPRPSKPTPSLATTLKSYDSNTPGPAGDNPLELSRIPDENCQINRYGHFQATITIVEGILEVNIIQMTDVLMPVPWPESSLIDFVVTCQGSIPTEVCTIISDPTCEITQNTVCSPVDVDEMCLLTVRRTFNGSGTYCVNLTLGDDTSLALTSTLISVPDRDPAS
Nature of the assay: cell-based or functional assay.

The target of assay [2] is T1, GPNMB (CG56972), native full-length …. Nature of the assay: FACS, UACC-62 cells, Ab 1 ug/mL.
Protocol: Cells were washed twice with PBS (Ca and Mg free), incubated with Versene at 37° C. until cells detached, counted and aliquoted at 1 million cells per assay tube. Cells were then washed twice and resuspended in ice-cold FACS buffer (0.01M HEPES, 0.15M NaCl, 0.1% NaN₃ and 4% FBS). Primary antibody at 1 μg/mL was added to the cells. Cells were incubated on ice for 30 min, washed 2-3 times and resuspended in 1 mL of ice-cold FACS buffer. R-PE-conjugated goat anti-human antibody (Jackson ImmunoResearch Laboratory) at 1:100 dilution was added and cells were incubated on ice for 30 min. After washing 3 times with 1 mL of ice-cold FACS buffer, cells were fixed with 0.5-1 mL of 1% formaldehyde in PBS and analyzed by flow cytometry.
The target of assay [3] is T2, CD3 on purified human T cells (human, UniProt P07766 23-207).
T2 construct: whole, on cells; also called CD3/TCR complex
T2 sequence (P07766 23-207): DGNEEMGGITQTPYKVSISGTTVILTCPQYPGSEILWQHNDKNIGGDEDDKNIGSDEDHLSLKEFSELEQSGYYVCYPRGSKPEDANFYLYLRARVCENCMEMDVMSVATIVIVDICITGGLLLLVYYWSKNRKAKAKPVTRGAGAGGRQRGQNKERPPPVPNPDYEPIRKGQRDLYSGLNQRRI
Nature of the assay: flow cytometry on purified human T cells, mouse anti-FLAG mAb then PE goat anti-mouse Ig F(ab')2. In general terms: In flow cytometry, cells or beads pass a laser one at a time.
Description: (Jackson ImmunoResearch, West Grove, Pa.) Ten thousand events were collected and analyzed on a FACSCalibur instrument (Becton Dickinson, Mountain View, Calif.).
To verify binding of the bi-scFv to human CD3 molecules, we used purified human T cells.

The target of assay [4] is T1, GPNMB (CG56972), native full-length …. Nature of the assay: cell-based or functional assay. The source holds these as a separate data set.
Assay [5] has the same target. Nature of the assay: cell-based or functional assay. The source holds these as a separate data set.
Assay [6] has the same target. Nature of the assay: cell-based or functional assay. This is another data set of the same source.
Assay [7] has the same target. Nature of the assay: cell-based or functional assay. This is another data set of the same source.
Assay [8] shares this target. Nature of the assay: cell-based or functional assay. The source holds these as a separate data set.

B1: Mab2.10.2 (antibody, human IgG2, V domains shown)
VH: QLVESGGGVVQPGRSLRLSCAASGFAFSSYGMHWVRQAPGKGLEWVAVISYDGNNKYYADSVKGRFTISRDNSKNTLYLQMNSLRAEDTAVYYCARDLVVRGIRGYYYYFGMDVWGQGTTVTVSS
VL: not shown
notes: Human IgG2 kappa from XenoMouse XMG2; also called CR011.2.10.2
With B1, the “killing of UACC-62 cells with saporin-conjugated secondary antibody, clonogenic, Ab 50 ng/mL” value (shortened to “killing of UACC-62 cells”) in assay [1] was more than 70%. Further, in assay [2], the “Geo Mean Ratio (relative to pK16)” value worked out at 2.6.

B2: CR011 scFv (VL-L4-VH) Flag (scFv)
scFv: EIVMTQSPATLSVSPGERATLSCRASQSVDNNLVWYQQKPGQAPRLLIYGASTRATGIPARFSGSGSGTEFTLTISSLQSEDFAVYYCQQYNNWPPWTFGQGTKVEIKLSADDAKKDAAKKDDAKKDDAKKDLQVQLQESGPGLVKPSQTLSLTCTVSGGSISSFNYYWSWIRHHPGKGLEWIGYIYYSGSTYSNPSLKSRVTISVDTSKNQFSLTLSSVTAADTAVYYCARGYNWNYFDYWGQGTLVTVSSASDYKDDDDK
notes: C-terminal Flag tag is within the entry; also called CR011 single chain antibody; CR011 scFv monomer
For the molecule B2, in assay [3], the binding result is “no binding (tested: 5 µg/sample/100 µl)”.

B3: Mab1.2.2 (antibody, human IgG2, V domains shown)
VH: ITLKESGPTLVKPTQTLTLTCTFSGFSLSAGGVGVGWIRQPPGKALEWLALIYWNDDKRYSPSLRSRLTITKDTSKNQVVLTITNMDPVDTATYYCAHSHYDYDWGSYFDYWGQGTLVTVSS
VL: DIVMTQTPLSLPVTPGEPASISCRSSQSLLDSDDGNTYLDWYLQKPGQSPQLLIYTLSYRASGVPDRFSGSGSGTDFTLNISRVEAEDVGVYYCMQRIEFPITFGQGTRLEIKR
notes: Human IgG2 kappa from XenoMouse XMG2; also called CR011.1.2.2
B3: in assay [2], the “Geo Mean Ratio (relative to pK16)” value was 1.24.

B4: Mab2.22.1 (antibody, human IgG2, V domains shown)
VH: QVQLEQSGPGLVKPSQNLSLTCTVSGGSISSGGYFWSWIRQHPGKGLEWIGYIYYSGNTYYNPSLKSRVTISVDTSKNQFSLKLSSVTAADTAVYYCARDYYYDTSGFSYRYDWYYGMDVWGQGTTVTVSS
VL: DIQLTQSPSSLSASVGDRVTITCRASQGIRNDLGWYQQKPGKAPKRLIYAASSLQNGVPSRFSGSGSGTEFTLTISSLQPEDFATYYCLQHNTYPAFGQGTKVEIKR
notes: Human IgG2 kappa from XenoMouse XMG2; also called CR011.2.22.1
Regarding B4, the “killing of UACC-62 cells” value in assay [1] is more than 70%. Further, in assay [2], the “Geo Mean Ratio (relative to pK16)” value was 4.46.

B5: CR011-vcMMAE (Mab1.15.1 conjugated to monomethylauristatin E through a valine-citrulline linker) (other)
heavy: QVQLQESGPGLVKPSQTLSLTCTVSGGSISSFNYYWSWIRHHPGKGLEWIGYIYYSGSTYSNPSLKSRVTISVDTSKNQFSLTLSSVTAADTAVYYCARGYNWNYFDYWGQGTLVTVSSASTKGPSVFPLAPCSRSTSESTAALGCLVKDYFPEPVTVSWNSGALTSGVHTFPAVLQSSGLYSLSSVVTVPSSNFGTQTYTCNVDHKPSNTKVDKTVERKCCVECPPCPAPPVAGPSVFLFPPKPKDTLMISRTPEVTCVVVDVSHEDPEVQFNWYVDGVEVHNAKTKPREEQFNSTFRVVSVLTVVHQDWLNGKEYKCKVSNKGLPAPIEKTISKTKGQPREPQVYTLPPSREEMTKNQVSLTCLVKGFYPSDIAVEWESNGQPENNYKTTPPMLDSDGSFFLYSKLTVDKSRWQQGNVFSCSVMHEALHNHYTQKSLSLSPGK
VL: not shown
modifications: vcMMAE on cysteines of reduced disulfides, about 4 drugs per antibody (3.5-4.2); positions not given
On to B5, for which the “IC50 of colony formation (% of control), clonogenic assay after 96 h treatment of HEK293 cells transfected with GPNMB; the same conjugate on empty-vector cells prints >1000” value in assay [4] came to 0.3 µg/mL. For the same molecule, in assay [5], the “IC50, clonogenic assay with 1.15.1-AE, G361 cells” value is 1050 ng/mL and 6500 pM; the “IC50, clonogenic assay with 1.15.1-AE, RPMI-7951 cells” value is 972 ng/mL and 6000 pM; the “IC50, clonogenic assay with 1.15.1-AE, SK-Mel 2 cells” value is 111 ng/mL and 750 pM; the “IC50, clonogenic assay with 1.15.1-AE, SK-Mel 5 cells” value was 237 ng/mL and 1600 pM. Also, in assay [5], the “IC50, clonogenic assay with 1.15.1-AE, UACC-62 cells” value was 697 ng/mL and 4300 pM; the “IC50, clonogenic assay with 1.15.1-AE, UACC-257 cells” value is 825 ng/mL and 5500 pM; the “IC50, clonogenic assay with 1.15.1-AE, WM-266-4 cells” value is 345 ng/mL and 2300 pM. For the same molecule, in assay [6], the “IC50 of colony formation (% of control), clonogenic assay, SK-Mel-2 cells with GPNMB knocked down by GPNMB siRNA” value worked out at 1 µg/mL; the “IC50 of colony formation (% of control), clonogenic assay, control-siRNA-transfected SK-Mel-2 cells” value stood at 0.22 µg/mL; the “IC50 of colony formation (% of control), clonogenic assay, mock-transfected SK-Mel-2 cells” value is 0.33 µg/mL. Also, in assay [7], the “CR011-AE IC50, clonogenic assay, SF-268 cells (poor expression)” value is more than 1.5 µg/mL; the “CR011-AE IC50, clonogenic assay, SF-539 cells” value came to 1.03 µg/mL; the “CR011-AE IC50, clonogenic assay, SK-MEL-2 cells” value was found to be 0.303 µg/mL; the “CR011-AE IC50, clonogenic assay, SNB-78 cells” value came to 0.449 µg/mL. In assay [7], the “CR011-AE IC50, clonogenic assay, U-118-MG cells” value came to 1.25 µg/mL and the “CR011-AE IC50, clonogenic assay, XF-498 cells” value is 0.216 µg/mL. For the same molecule, in assay [8], the “IC50, clonogenic assay with 1.15.1-AE, SR cells” value was 296 ng/mL and 2000 pM; the “IC50, clonogenic assay with 1.15.1-AE, THP-1 cells” value is 207 ng/mL and 1400 pM; the “IC50, clonogenic assay with 1.15.1-AE, U937 cells” value was 340 ng/mL and 2400 pM.

B6: Mab1.15.1 (CR011), fully human IgG2 (antibody)
heavy: QVQLQESGPGLVKPSQTLSLTCTVSGGSISSFNYYWSWIRHHPGKGLEWIGYIYYSGSTYSNPSLKSRVTISVDTSKNQFSLTLSSVTAADTAVYYCARGYNWNYFDYWGQGTLVTVSSASTKGPSVFPLAPCSRSTSESTAALGCLVKDYFPEPVTVSWNSGALTSGVHTFPAVLQSSGLYSLSSVVTVPSSNFGTQTYTCNVDHKPSNTKVDKTVERKCCVECPPCPAPPVAGPSVFLFPPKPKDTLMISRTPEVTCVVVDVSHEDPEVQFNWYVDGVEVHNAKTKPREEQFNSTFRVVSVLTVVHQDWLNGKEYKCKVSNKGLPAPIEKTISKTKGQPREPQVYTLPPSREEMTKNQVSLTCLVKGFYPSDIAVEWESNGQPENNYKTTPPMLDSDGSFFLYSKLTVDKSRWQQGNVFSCSVMHEALHNHYTQKSLSLSPGK
VL: not shown
As to B6, the “killing of UACC-62 cells” value in assay [1] was more than 70%.

Source of the values: patent US20160311919A1 (CELLDEX THERAPEUTICS, published 2016).
